Data on one substance can be found in PMC3715468, “Structural and Functional Characterisation of TesA - A Novel Lysophospholipase A from Pseudomonas aeruginosa” (PLoS ONE, 2013).

What all share (test): purified protein
Assay type in all cases: biochemical, Pseudomonas aeruginosa

Series [1] deals with CCCCCC(=O)OC[C@@H](O)COP(=O)([O-])OCC[N+](C)(C)C. The settings on record: pH 7.2; 37.0 °C.
Series [2] has as its system CCCCCCCCCCCC(=O)OC[C@@H](O)COP(=O)([O-])OCC[N+](C)(C)C. The settings on record: pH 7.2; 37.0 °C.
The subject of series [3] is CCCCCCCCCCCCCCCC(=O)OC[C@@H](O)COP(=O)([O-])OCC[N+](C)(C)C. The note with it: 20 mM Tris-HCl pH 7.2, 37 °C, 0.25% (v/v) Triton X-100, 1.5 mM NaN3, 30 min.

On to TesA (Pseudomonas aeruginosa PAO1), for which, in series [1], the Km worked out at 7220 ± 920 µM and the kcat/Km is 110000 M⁻¹ s⁻¹. For the same substance, in series [2], the Km stood at 1780 ± 170 µM and the kcat/Km stood at 1.1e+06 M⁻¹ s⁻¹. Further, in series [3], the Km worked out at 2040 ± 180 µM, the kcat amounted to 921 s⁻¹ and the kcat/Km turned out to be 450000 M⁻¹ s⁻¹.
